Measurements reported in patent publication US20200339678A1 (RIGEL PHARMACEUTICALS, published 2020).
Residue numbers refer to the chain shown, from its start. Names and notes keep the numbering of the source.

T1: His-tagged recombinant Human TIGIT (human, UniProt Q495A1 22-141)
T1 construct: coated antigen of the direct ELISA; not shown: His tag
T1 sequence (looked up): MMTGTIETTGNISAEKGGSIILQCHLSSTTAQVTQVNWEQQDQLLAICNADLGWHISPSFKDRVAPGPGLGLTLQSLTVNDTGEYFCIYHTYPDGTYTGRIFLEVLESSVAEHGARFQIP

T2: His-tagged recombinant Mouse TIGIT (mouse, UniProt P86176 29-148, limits assumed)
T2 construct: coated antigen of the direct ELISA; not shown: His tag
T2 sequence (looked up): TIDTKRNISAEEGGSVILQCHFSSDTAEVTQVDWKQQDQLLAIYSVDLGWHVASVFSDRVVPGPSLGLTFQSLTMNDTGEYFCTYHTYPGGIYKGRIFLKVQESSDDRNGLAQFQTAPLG

T3: biotinylated human TIGIT (human, UniProt Q495A1 22-141, biotinylated (EZ-Link NHS-PEG4-biotin kit))
T3 construct: extracellular domain; also called TIGIT-ECD
T3 sequence (looked up): T1 sequence (looked up)

T4: mouse TIGIT-Fc (mouse, UniProt P86176 29-148)
T4 construct: extracellular domain; also called TIGIT-ECD; not shown: Fc
T4 sequence (looked up): T2 sequence (looked up)

T5: human TIGIT fused to a beta galactosidase portion, on YTS cells (YTS_hTIGIT/hGrb2) (human, UniProt Q495A1 22-244)
T5 sequence (looked up): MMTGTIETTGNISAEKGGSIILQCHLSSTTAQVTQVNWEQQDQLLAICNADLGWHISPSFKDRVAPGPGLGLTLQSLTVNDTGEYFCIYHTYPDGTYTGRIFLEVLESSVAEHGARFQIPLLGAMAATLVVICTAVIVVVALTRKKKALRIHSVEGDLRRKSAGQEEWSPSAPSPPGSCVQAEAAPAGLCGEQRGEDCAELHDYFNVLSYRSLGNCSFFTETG

T6: His-tagged recombinant Human TIGIT (human, UniProt Q495A1 22-141)
T6 construct: also called VSIG9; VSTM3; not shown: His tag
T6 sequence (looked up): T1 sequence (looked up)

T7: His-tagged recombinant Mouse TIGIT (mouse, UniProt P86176 29-148, limits assumed)
T7 construct: not shown: His tag
T7 sequence (looked up): T2 sequence (looked up)

B1: Ab1i6 (antibody, V domains shown)
VH: EVQLLESGGGLVQPGGSLRLSCAASGFTFSSYAMHWVRQAPGKGLEWVSGISSNGGSTSYADSVKGRFTISRDNSKNTLYLQMNSLRAEDTAVYYCARVAYSVWIDYWGQGTLVTVSS
VL: not shown
notes: mIgG2a of Ab1, P96A
B2: Ab40 (Fab, V domains shown)
VH: EVQLLESGGGLVQPGGSLRLSCAASGFTFSSYGMNWVRQAPGKGLEWVAGIKYSSGNKYYADSVKGRFTISRDNSKNTLYLQMNSLRAEDTAVYYCARGPYDVWMDYWGQGTLVTVSS
VL: not shown
B3: Ab40i1 (antibody, V domains shown)
VH: B2 VH
VL: not shown
notes: hIgG1 of Ab40
B4: Ab53i5 (antibody, V domains shown)
VH: B2 VH with N35H, G50S, G56S, M105L
VL: not shown
B5: Ab40i2 (antibody, V domains shown)
VH: B2 VH with G33S
VL: not shown
notes: hIgG1 of Ab40, G33S
B6: Ab53i7 (antibody, V domains shown)
VH: B2 VH with G33S, N35H, G50S, G56S, M105L
VL: not shown
notes: hIgG1 of Ab53, S52aY
B7: Ab53i8 (antibody, V domains shown)
VH: B2 VH with G33S, N35H, G50S, G56S, M105L
VL: not shown
notes: mIgG2a of Ab53, S52aY
B8: Ab17i1 (antibody, V domains shown)
VH: B2 VH with G33A, N35S, G50S, Y53S, S55G, K58T, G99E, D102S, V103Y
VL: not shown
notes: hIgG1 of Ab17
B9: Ab17i2 (antibody, V domains shown)
VH: B2 VH with G33A, N35S, G50S, Y53S, S55G, K58T, G99E, D102S, V103Y
VL: not shown
notes: mIgG2a of Ab17
B10: Ab1i12 (antibody, V domains shown)
VH: B1 VH with A100P, Y101A
VL: not shown
notes: mIgG2a of Ab1, Y97A
B11: Ab1i11 (antibody, V domains shown)
VH: B1 VH with A100P, W104A
VL: not shown
notes: mIgG2a of Ab1, W100A
B12: Ab1i1 (antibody, V domains shown)
VH: B1 VH with A100P
VL: not shown
B13: Ab1i3 (antibody, V domains shown)
VH: B1 VH with A100P
VL: not shown
B14: Ab153 (Fab, V domains shown)
VH: B1 VH with A33S, G50S, S52N, G55A, S57T, T58I, A100P, S102D, V103Y
VL: not shown
notes: ARV set
B15: Ab157 (Fab, V domains shown)
VH: B2 VH with G33S, G50S, K52N, Y53S, S54N, S55A, N57S, K58T, G99V, V103Y
VL: not shown
notes: ARV set
B16: Ab131 (Fab, V domains shown)
VH: B1 VH with H35S, G50D, S52K, N54S, G55A, A100P
VL: not shown
notes: ARV set
B17: Ab32 (Fab, V domains shown)
VH: B1 VH with A33S, S49A, G50N, S52N, S57N, S59G, A100P, S102D, I105M
VL: not shown
notes: ARV set
B18: Ab124 (Fab, V domains shown)
VH: B2 VH with G33S, N35H, G50S, Y53G, S55A, G56S, N57Y, K58S, G99V, V103Y
VL: not shown
notes: ARV set
B19: Ab197 (Fab, V domains shown)
VH: B1 VH with A33S, S49A, G50Y, S52K, S53G, N54S, G55A, A100P, S102G, I105M
VL: not shown
notes: ARV set
B20: Ab95 (Fab, V domains shown)
VH: EVQLLESGGGLVQPGGSLRLSCAASGFTFSSYAMSWVRQAPGKGLEWVASIKSSTGYIGYADSVKGRFTISRDNSKNTLYLQMNSLRAEDTAVYYCAREPYSYWLDYWGQGTLVTVSS
VL: not shown
notes: ARE set
B21: Ab76 (Fab, V domains shown)
VH: B1 VH with S30D, A33S, G50A, S53G, N54S, S59Y, A100P
VL: not shown
notes: ARV set
B22: Ab165 (Fab, V domains shown)
VH: B20 VH with S50A, Y57T, G59Y, Y103V
VL: not shown
notes: ARE set
B23: Ab74 (Fab, V domains shown)
VH: B1 VH with A33S, S49A, G50S, G55A, S57T, S59G, A100P, S102D, V103Y
VL: not shown
notes: ARV set
B24: Ab169 (Fab, V domains shown)
VH: B20 VH with A33S, S35H, S54D, G56S, Y57S, I58T, G59Y, E99V, S102D, L105I
VL: not shown
notes: ARV set
B25: Ab145 (Fab, V domains shown)
VH: B20 VH with K52S, I58T, G59S
VL: not shown
notes: ARE set
B26: Ab46 (Fab, V domains shown)
VH: B1 VH with A33S, S49A, S52W, N54S, S57T, A100P, S102G, I105M
VL: not shown
notes: ARV set
B27: Ab148 (Fab, V domains shown)
VH: B20 VH with A33S, S53G, T55A, G59Y, E99V, S102D, L105M
VL: not shown
notes: ARV set
B28: Ab72 (Fab, V domains shown)
VH: B20 VH with A33S, S35H, S50A, S54D, T55A, Y57T, I58S, E99V, S102D, L105I
VL: not shown
notes: ARV set
B29: Ab41 (Fab, V domains shown)
VH: B20 VH with A33S, S35H, T55G, G59S, E99V, S102D, L105M
VL: not shown
notes: ARV set
B30: Ab185 (Fab, V domains shown)
VH: B20 VH with S50A, S54N, T55A, Y57S, I58S, G59Y
VL: not shown
notes: ARE set
B31: Ab175 (Fab, V domains shown)
VH: B1 VH with A33S, G50A, S52N, G55A, T58S, A100P, S102G, I105M
VL: not shown
notes: ARV set
B32: Ab47 (Fab, V domains shown)
VH: B20 VH with A33S, S35N, T55S, G56S, I58T, G59S, E99G, S102D, Y103T
VL: not shown
notes: ARG set
B33: Ab49 (Fab, V domains shown)
VH: B2 VH with G33S, N35H, G50S, Y53S, S55G, N57Y, Y59S, M105I
VL: not shown
notes: ARG set

The binders below were run against T1, His-tagged recombinant Human TIGIT (assay: ELISA).
Method: (§1) Binding affinities for antigen binding to anti-TIGIT monoclonal antibodies were determined by ELISA. […] Antibodies to be tested were diluted to 1 μM in PBS buffer containing 1% BSA and diluted 3-fold in a 10-point curve. […] Detection of the secondary antibody was determined using streptavidin-HRP and TMB reagent. All assays were performed at room temperature. Curve-fitting software was used to determine the EC₅₀ for each antibody.

Binder	EC50 [nM]
B1	29.4
B2	0.3
B3	0.3
B4	0.2
B5	0.2
B6	3.2
B7	1.7

What follows are binders tested against T2, His-tagged recombinant Mouse TIGIT (assay: ELISA).
Method: as §1

Binder	EC50 [nM]
B8	0.1
B9	0.2

Each binder was assayed against T3, biotinylated human TIGIT (assay: comp. ELISA vs PVR).
Method: (§2) Antibodies were serially diluted in a 10-point curve starting at 1 μM in 3-fold steps. […] Units are in microM.

Binder	IC50 [nM]
B1	46.9
B10	> 1000
B11	> 1000
B2	3.8
B3	1.3
B4	2.1
B5	2
B6	36.3
B7	12.5

These binders were tested against T4, mouse TIGIT-Fc (assay: comp. ELISA vs PVR).
Method: as §2

Binder	IC50 [nM]
B1	> 1000
B10	> 1000
B11	> 1000
B8	1.1
B2	> 1000
B3	> 1000
B4	> 1000
B5	> 1000
B9	1.6

These binders were tested against T5, human TIGIT fused to a beta … (assay: cell-based or functional assay).

Binder	YTS_hTIGI/hGrbs_EFC_Agonism, 221_WT [µM]	YTS_hTIGI/hGrbs_EFC_Antagonism, 221_hPVR/ICAM [µM]
B8	0.0012	> 1
B12	0.0091	> 1
B13	> 1	0.172
B2	> 1	0.0023
B3	> 1	0.0002
B4	0.0057	0.526
B5	0.0011	0.186
B9	–	> 1
B6	0.0681	1.93
B7	0.02	> 1

What follows are binders tested against T6, His-tagged recombinant Human TIGIT (assay: ELISA, coated His-tagged human TIGIT).
Method: as §1

Binder	EC50 [nM]
B14	87.7
B15	165
B16	7.2
B17	4.3
B18	34.3
B19	11.1
B20	357
B21	68.1
B22	12.8
B23	177
B24	153
B25	232
B26	8.2
B27	168
B28	81.7
B29	11
B30	81.7
B31	5.2
B32	34.9
B33	27.6

These binders were tested against T7, His-tagged recombinant Mouse TIGIT (assay: ELISA, coated His-tagged mouse TIGIT).
Method: as §1

Binder	EC50 [nM]
B14	13.9
B15	116
B16	331
B17	14.7
B18	14.1
B19	81.4
B20	100
B21	65.7
B22	228
B23	41.9
B24	110
B25	50.4
B26	95
B27	16.4
B28	235
B29	9.5
B30	101
B31	39.3
B32	361
B33	58
